# Columns and labels:
# Assay in all cases: SPR; Biacore T200, C1 chip, 25 °C, HBS-EP+ (10 mM HEPES, 150 mM NaCl, 3 mM EDTA, 0.05% P20, pH 7.4); antibody Fc variants captured via anti-human Fab-kappa nanobody (about 60 RU), Fc only variants amine-coupled (60-80 RU), cytokine-Fc fusions captured via anti-PGLALA F(ab')2 (35-40 RU); PRYSPRY domain injected in five two-fold dilutions from 500, 1000 or 2000 nM; global fit, Langmuir 1:1, affinity mode
# [1] = target: mAb2 WT KiH (human IgG1, knob-into-hole, Fc wild type at the TRIM21 site) (human)
# [2] = target: mAb1 HH (human IgG1, T307H, N434H) (human)
# [3] = target: mAb1 WT-AAA (asymmetrical human IgG1, one Fc heavy chain H310A, H433A, Y436A) (human)
# [4] = target: mAb1 YTE (human IgG1, M252Y, S254T, T256E) (human)
# [5] = target: Fc WT (Fc-only variant, human IgG1 core hinge-CH2-CH3, wild type) (human)
# [6] = target: mAb1 HH-AAA (asymmetrical human IgG1, one Fc heavy chain HH, the other AAA) (human)
# Briakinumab (human) = target: Briakinumab (human)
# Briakinumab (human), sequence (heavy, as listed by the source, chain 1 of 2): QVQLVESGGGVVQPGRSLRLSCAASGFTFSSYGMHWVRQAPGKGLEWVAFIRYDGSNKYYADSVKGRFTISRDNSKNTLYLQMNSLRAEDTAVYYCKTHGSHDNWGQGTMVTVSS
# Briakinumab (human), sequence (light, as listed by the source, chain 2 of 2): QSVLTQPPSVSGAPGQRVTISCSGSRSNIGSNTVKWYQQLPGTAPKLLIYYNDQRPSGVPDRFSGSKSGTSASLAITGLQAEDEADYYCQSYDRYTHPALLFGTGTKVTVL
# [7] = target: mAb1 YTE-AAA (asymmetrical human IgG1, one Fc heavy chain YTE, the other AAA) (human)
# [8] = target: mAb2 WT-AAA (asymmetrical human IgG1, one Fc heavy chain H310A, H433A, Y436A) (human)
# TRIM21 PRYSPRY domain, sequence (P19474 277-475): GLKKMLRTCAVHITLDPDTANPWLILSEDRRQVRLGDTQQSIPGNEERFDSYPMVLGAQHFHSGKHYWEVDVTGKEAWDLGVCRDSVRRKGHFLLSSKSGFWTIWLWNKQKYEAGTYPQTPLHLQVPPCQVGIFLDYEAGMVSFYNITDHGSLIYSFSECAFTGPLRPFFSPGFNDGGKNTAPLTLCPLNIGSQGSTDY
substance,measurement,setting,value
TRIM21 PRYSPRY domain (from UniProt P19474-1 277-475) (domain or fragment),Kd,[1],49.6 nM
same,koff,[1],0.118 s⁻¹
same,kon,[1],2.38e+06 M⁻¹ s⁻¹
same,Kd,[2],101 nM
same,koff,[2],0.477 s⁻¹
same,kon,[2],4.74e+06 M⁻¹ s⁻¹
same,kon,[3],2.66e+06 M⁻¹ s⁻¹
same,Kd,[4],74.8 nM
same,koff,[4],0.16 s⁻¹
same,kon,[4],2.14e+06 M⁻¹ s⁻¹
same,Kd,[5],65.1 nM
same,koff,[5],0.102 s⁻¹
same,kon,[5],1.57e+06 M⁻¹ s⁻¹
same,Kd,[6],120 nM
same,koff,[6],0.434 s⁻¹
same,kon,[6],3.63e+06 M⁻¹ s⁻¹
same,Kd,Briakinumab (human),52.3 nM
same,koff,Briakinumab (human),0.115 s⁻¹
same,kon,Briakinumab (human),2.2e+06 M⁻¹ s⁻¹
same,Kd,[7],92.6 nM
same,koff,[7],0.189 s⁻¹
same,kon,[7],2.04e+06 M⁻¹ s⁻¹
same,Kd,[8],38.5 nM
same,koff,[8],0.0901 s⁻¹
same,kon,[8],2.34e+06 M⁻¹ s⁻¹

# Source: publication PMC11210195
